This assay concerns the target T1, decoration protein pb10 of bacteriophage T5, full length (bacteriophage T5, UniProt Q6QGD6 1-164).
T1 construct: Cloned in pET28b; also called native pb10; unmodified pb10; source: E. coli BL21 (DE3), purified (HisTrap FF, HiTrap SP, Superdex 75)
T1 sequence (looked up): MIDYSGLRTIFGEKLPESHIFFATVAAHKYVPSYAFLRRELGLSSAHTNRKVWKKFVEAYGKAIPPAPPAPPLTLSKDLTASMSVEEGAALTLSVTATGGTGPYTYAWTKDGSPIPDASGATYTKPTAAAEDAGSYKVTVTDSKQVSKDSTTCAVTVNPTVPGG
Description: SPR; T5 CLPs captured on a CM5 chip through covalently coupled rabbit polyclonal anti-capsid antibodies (about 900 RU); pb10 or chimeras injected at 0.25-4 nM for 200 s at 50 µL/min; 25 °C; PBS with 0.05% Tween 20 and 1 mg/mL BSA; simple Langmuir model. The conditions noted are these: both partners purified. (In general: In SPR one partner is held on a chip, and binding of the other changes the refractive index at the surface.)

B1: bacteriophage T5 capsid-like particles (T5 CLPs) (complex)
chain: AVNQSSSVEVSSESYETIFSQRIIRDLQKELVVGALFEELPMSSKILTMLVEPDAGKATWVAASTYGTDTTTGEEVKGALKEIHFSTYKLAAKSFITDETEEDAIFSLLPLLRKRLIEAHAVSIEEAFMTGDGSGKPKGLLTLASEDSAKVVTEAKADGSVLVTAKTISKLRRKLGRHGLKLSKLVLIVSMDAYYDLLEDEEWQDVAQVGNDSVKLQGQVGRIYGLPVVVSEYFPAKANSAEFAVIVYKDNFVMPRQRAVTVERERQAGKQRDAYYVTQRVNLQRYFANGVVSGTYAAS
modifications: DNA-free expanded capsid lacking pb10 (T5 dec deletion, stAmN5). Mature pb8 after removal of the scaffolding domain; limits from the UniProt chain feature, matching the 299 aa entity of PDB 6OMC/6OMA.
As for B1, the Kd was 1.5 to 2.3 pM.

What is called Kd is the equilibrium constant for the complex coming apart. Low readings indicate a tighter complex, high ones a looser complex.
